The values below come from patent US20230141177A1.

The target in assay [1] is Aβ aggregates in the high molecular weight (HMW) fraction of pooled soluble human AD brain extract (>70 kDa to ~700 kDa) (human) (UniProt P05067). Kind of assay: SPR, immobilized antibody, brain extract fraction at 100 µg/ml injected; Study 2. For orientation: Surface plasmon resonance follows binding to a sensor surface in real time, without labels.
Assay [2] deals with AβO in the low molecular weight (LMW) fraction of pooled soluble human AD brain extract (~8 kDa to ~70 kDa) (human) (UniProt P05067). The assay is described as above.
Assay [3] shares this target. The assay is described as follows: SPR; BRU on LMW fraction divided by BRU on HMW fraction; Study 3.
Assay [4] has the same target. Kind of assay: SPR; BRU on LMW fraction divided by BRU on HMW fraction; Study 2.
The target is the same in assay [5]. Kind of assay: SPR; BRU on LMW fraction divided by BRU on HMW fraction; Study 1.
In assay [6] the target is Aβ aggregates in the high molecular weight (HMW) fraction of pooled soluble human AD brain extract (>70 kDa to ~700 kDa) (human) (UniProt P05067). Kind of assay: SPR, immobilized antibody, brain extract fraction at 100 µg/ml injected; Study 1.
In assay [7] the target is AβO in the low molecular weight (LMW) fraction of pooled soluble human AD brain extract (~8 kDa to ~70 kDa) (human) (UniProt P05067). The description is as above.
For assay [8], the target named is Aβ aggregates in the high molecular weight (HMW) fraction of pooled soluble human AD brain extract (>70 kDa to ~700 kDa) (human) (UniProt P05067). The assay is described as follows: SPR, immobilized antibody, brain extract fraction at 100 µg/ml injected; Study 3.
Assay [9] has as its target AβO in the low molecular weight (LMW) fraction of pooled soluble human AD brain extract (~8 kDa to ~70 kDa) (human) (UniProt P05067). The assay is described as above.

B1: parental antibody, PMN310 humanized antibody variant VH2/Vk5 (human IgG4 S241P / kappa) (antibody, V domains shown)
VH: QVQLVQSGAEVKKPGASVKMSCKASGYSFTSYWINWVKQRPGQGLEWIGDVHPGRGVSTYNAKFKSRATLTLDTSISTAYMELSSLRSEDTAVYYCSRSHGNTYWFFDVWGQGTTVTVSS
VL: DVLMTQSPLSLPVTLGQPASISCRSSQSIVHSNGNTYLEWYQQRPGQSPRLLIYKVSNRFSGVPDRFSGSGSGTDFTLKISRVEAEDVGVYYCFQGSHVPFTFGQGTKLEIKR
In the case of B1, the Binding to HMW (BRU) turned out to be 13.5 BRU in [1], 27 BRU in [6] and 5 BRU in assay [8]. In addition, the Binding to LMW (BRU) is 17.7 BRU in [2], 27 BRU in [7] and 7.6 BRU in [9]. Besides, the values for the LMW/HMW ratio in assay [3], in assay [4] and in assay [5] were 1.52, 1.31 and 1, respectively.

B2: Clone 14 (affinity matured VH with parental Vk, human IgG4 S241P / kappa) (antibody, V domains shown)
VH: QVQLVQSGAEVKKPGASVKMSCKASGYSFTSYWINWVKQRPGQGLEWIGDVHPGRGVSTYNAKFKSRATLTLDTSISTAYMELSSLRSEDTAVYYCAKSDASGYWFFDVWGQGTTVTVSS
VL: DVLMTQSPLSLPVTLGQPASISCRSSQSIVHSNGNTYLEWYQQRPGQSPRLLIYKVSNRFSGVPDRFSGSGSGTDFTLKISRVEAEDVGVYYCFQGSHVPFTFGQGTKLEIKR
Consider B2, for which the Binding to HMW (BRU) in assay [1] came out at 7.55 BRU; in [6], 16 BRU; in assay [8] it was 4.38 BRU. The Binding to LMW (BRU) amounted to 11.1 BRU in [2], 18 BRU in assay [7] and 6.34 BRU in [9]. Besides, the values for the LMW/HMW ratio in assay [3], in assay [4] and in assay [5] were 1.45, 1.47 and 1.1, respectively.

B3: Clone 4 (affinity matured VH with parental Vk, human IgG4 S241P / kappa) (antibody, V domains shown)
VH: QVQLVQSGAEVKKPGASVKMSCKASGYSFTSYWINWVKQRPGQGLEWIGDVHPGRGVSTYNAKFKSRATLTLDTSISTAYMELSSLRSEDTAVYYCARVSPTGYWFFDVWGQGTTVTVSS
VL: DVLMTQSPLSLPVTLGQPASISCRSSQSIVHSNGNTYLEWYQQRPGQSPRLLIYKVSNRFSGVPDRFSGSGSGTDFTLKISRVEAEDVGVYYCFQGSHVPFTFGQGTKLEIKR
As to B3, the Binding to HMW (BRU) in [1] came out at 11.2 BRU; in assay [6], 21 BRU; in [8] it was 6.77 BRU. The Binding to LMW (BRU) amounted to 17.3 BRU in assay [2], 28 BRU in [7] and 10.1 BRU in assay [9]. Moreover, the LMW/HMW ratio amounted to 1.54 in assay [3], 1.55 in [4] and 1.32 in assay [5].

B4: Clone 5 (affinity matured VH with parental Vk, human IgG4 S241P / kappa) (antibody, V domains shown)
VH: QVQLVQSGAEVKKPGASVKMSCKASGYSFTSYWINWVKQRPGQGLEWIGDVHPGRGVSTYNAKFKSRATLTLDTSISTAYMELSSLRSEDTAVYYCARGALSPYWFFDVWGQGTTVTVSS
VL: DVLMTQSPLSLPVTLGQPASISCRSSQSIVHSNGNTYLEWYQQRPGQSPRLLIYKVSNRFSGVPDRFSGSGSGTDFTLKISRVEAEDVGVYYCFQGSHVPFTFGQGTKLEIKR
Consider B4, for which the Binding to HMW (BRU) stood at 6.57 BRU in assay [1], 15 BRU in assay [6] and 7.88 BRU in assay [8]. Also, the Binding to LMW (BRU) in assay [2] turned out to be 9.42 BRU; in [7], 15 BRU; in assay [9], 9.45 BRU. For the same molecule, the LMW/HMW ratio stood at 1.2 in [3], 1.43 in assay [4] and 1 in assay [5].
